Results taken from publication PMC5261807 (2017).
Non-standard residues stand in square brackets, D forms with d. No end group written: not given here. Arg(Me2a) = CN(C)C(=N)NCCC[C@H](N)C(=O)O; Lys(Me3) = C[N+](C)(C)CCCC[C@H](N)C(=O)O; Arg(Me2s) = CN=C(NC)NCCC[C@H](N)C(=O)O; pT = C[C@@H](OP(=O)(O)O)[C@H](N)C(=O)O; Lys(Me2) = CN(C)CCCC[C@H](N)C(=O)O; pS = N[C@@H](COP(=O)(O)O)C(=O)O; Lys(Me) = CNCCCC[C@H](N)C(=O)O

T1: Bdf1 bromodomain 1 (GST-tagged, WT) (Saccharomyces cerevisiae (strain ATCC …, UniProt P35817))
T1 chain: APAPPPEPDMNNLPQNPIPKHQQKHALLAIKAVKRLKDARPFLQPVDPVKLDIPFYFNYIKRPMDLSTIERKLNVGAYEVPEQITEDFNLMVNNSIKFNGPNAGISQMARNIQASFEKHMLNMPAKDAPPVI

T2: Bdf1 bromodomain 2 (GST-tagged, WT) (Saccharomyces cerevisiae (strain ATCC …, UniProt P35817))
T2 chain: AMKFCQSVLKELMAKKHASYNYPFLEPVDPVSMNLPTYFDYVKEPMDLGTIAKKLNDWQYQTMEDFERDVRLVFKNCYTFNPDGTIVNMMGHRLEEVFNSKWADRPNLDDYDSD


Legend:
[1] = biological target: T1, Bdf1 bromodomain 1 (GST-tagged, WT); test: histone peptide array probed with recombinant GST-bromodomain, signal normalised to myc peptide control
[2] = biological target: T2, Bdf1 bromodomain 2 (GST-tagged, WT); test: as above

binding score [1] | binding score [2] | Binder
0.00305 | 0.006 | AR[pT][Lys(Me3)]QTARKSTGGKAPRKQ
0 | 0 | ARTKQTA[Arg(Me2a)][Lys(Me)][pS][pT]GGKAPRKQ
0.0117 | 0 | ARTKQTARKSTGGKAPRKQ (A Rme2s T Kme3 Q T A R Kme3 S T G G K A P R K Q)
0 | 0 | ARTKQTARKSTGGKAPRKQ (A R T Kme2 Q T A Rme2s Kme1 S T G G K A P R K Q)
0.00341 | 0 | PRKQLATKAA[Arg(Me2a)][Lys(Me)]SAPATGG
0.0126 | 0.00423 | ARTKQTARKSTGGKAPRKQ (A Rme2a T Kme2 Q T A Rme2a Kac S T G G K A P R K Q)
0.0133 | 0.00659 | ARTKQTARKSTGGKAPRKQ (A Rme2a T Kac Q T A Rme2a Kme3 S T G G K A P R K Q)
0.00592 | 0.00718 | ARTKQTARKSTGGKAPRKQ (not fully specified)
0 | 0 | PRKQLATKAA[Arg(Me2s)][Lys(Me)][pS]APATGG
0.00932 | 0.00718 | ARTKQTARKSTGGKAPRKQ (A Rme2a T Kac Q T A Rme2a K S T G G K A P R K Q)
0 | 0.0062 | ARTKQTARKSTGGKAPRKQ (A Rme2s T Kme1 Q T A Rme2s K S T G G K A P R K Q)
0.00574 | 0.121 | ARTKQTARKSTGGKAPRKQ (A R T K Q T A R K S pT G G Kac A P R K Q)
0.0477 | 0.186 | [pS]GRGKQGGK(Ac)ARAK(Ac)AKSRSS
0.0251 | 0.0902 | ARTKQTARKSTGGKAPRKQ (A R T K Q T A R Kme1 S T G G Kac A P R K Q)
0.000538 | 0.00679 | ARTK(Ac)QTARKSTGGKAPRKQ
0.00323 | 0.00423 | ARTKQTARKSTGGKAPRKQ (A Rme2s T Kme2 Q T A Rme2s Kme1 S T G G K A P R K Q)
0.484 | 0.448 | SGRGKGGKGLGKGGAKRHR (S G R G K G G Kac G L G Kac G G A Kac R H R)
0.144 | 0.394 | SGRGK(Ac)QGGK(Ac)ARAK(Ac)AKSRSS
0 | 0.00305 | ARTKQTARKSTGGKAPRKQ (A R T K Q T A R Kme3 S T G G K A P R K Q)
0.0418 | 0.137 | SGRGKGGKGLGKGGAKRHR (S G Rme2a G Kac G G Kac G L G K G G A K R H R)
0.00251 | 0.000885 | ARTKQTARKSTGGKAPRKQ (A Rme2a T Kme1 Q T A Rme2a Kme2 S T G G K A P R K Q)
0 | 0 | A[Arg(Me2s)]T[Lys(Me2)]QTA[Arg(Me2s)][Lys(Me2)]STGGKAPRKQ
0 | 0 | ARTKQTARKSTGGKAPRKQ (A R T Kme3 Q T A Rme2s Kme3 S T G G K A P R K Q)
0 | 0 | ARTKQTARKSTGGKAPRKQ (A Rme2s T Kac Q T A Rme2s Kme2 S T G G K A P R K Q)
0.00215 | 0.0062 | ARTKQTARKSTGGKAPRKQ (A R T K Q T A Rme2a Kme2 pS T G G K A P R K Q)
0.00126 | 0.00384 | ARTKQTA[Arg(Me2a)]K(Ac)[pS]TGGKAPRKQ

binding score [1] | binding score [2] | Binder
0.0213 | 0.0274 | ARTKQTARKSTGGKAPRKQ (A Rme2a T Kme2 Q T A Rme2s Kac S T G G K A P R K Q)
0 | 0 | ARTKQTARKSTGGKAPRKQ (A Rme2s T Kme3 Q T A R K S T G G K A P R K Q)
0.0122 | 0.00344 | ARTKQTARKSTGGKAPRKQ (A R T K Q T A R Kme1 S pT G G K A P R K Q)
0.00197 | 0.0135 | [pS]GRGK(Ac)QGGKARAKAKSRSS
0.00341 | 0.00305 | A[Arg(Me2s)]TK(Ac)QTARK(Me)STGGKAPRKQ
0 | 0 | ARTKQTARKSTGGKAPRKQ (A Rme2s T Kme2 Q T A R K S T G G K A P R K Q)
0 | 0.00226 | ARTKQTARKSTGGKAPRKQ (A Rme2s T Kme2 Q T A Rme2s K S T G G K A P R K Q)
0.0109 | 0.0269 | ARTKQTARKSTGGKAPRKQ (A Rme2s T Kme1 Q T A Rme2s Kac S T G G K A P R K Q)
0.00323 | 0.00698 | ARTKQTARKSTGGKAPRKQ (A Rme2a T Kme2 Q T A Rme2a K S T G G K A P R K Q)
0.00681 | 0.0404 | SGRGKGGKGLGKGGAKRHR (S G R G Kac G G K G L G K G G A K R H R)
0.00753 | 0 | PRKQLATKAA[Arg(Me2s)][Lys(Me3)][pS]APATGG
0 | 0.181 | PDPAK(Ac)SAPAPKK(Ac)G[pS]K(Ac)KAVT [H2B 1-19]
0 | 0.00148 | ARTK(Me3)QTARKSTGGKAPRKQ
0.0411 | 0.104 | ARTKQTARKSTGGKAPRKQ (A R T K Q T A R Kme2 S T G G Kac A P R K Q)
0.00251 | 0 | ARTKQTA[Arg(Me2a)][Lys(Me3)][pS][pT]GGKAPRKQ
0.307 | 0.496 | SGRGKGGKGLGKGGAKRHR (S G R G Kac G G Kac G L G Kac G G A K R H R)
0.0122 | 0.00344 | A[Arg(Me2a)]TK(Me3)QTARKSTGGKAPRKQ
0 | 0 | PRKQLATKAA[Arg(Me2s)]KSAPATGG
0 | 0.00148 | ART[Lys(Me3)]QTA[Arg(Me2a)][Lys(Me)]STGGKAPRKQ
0.00968 | 0.00305 | RKSAPATGGVKKPHRYRPG (histone peptides carry modifications given inline in the sequence and in columns 4-7 (Kac, Kme1/2/3, Rme2a/s, Cit, pS/pT); N-terminus free or acetylated)
0 | 0 | PRKQLATKAARKSAPATGG (histone peptides carry modifications given inline in the sequence and in columns 4-7 (Kac, Kme1/2/3, Rme2a/s, Cit, pS/pT); N-terminus free or acetylated)
0 | 0.00521 | ARTKQTA[Arg(Me2a)]K(Me)[pS]TGGKAPRKQ
0 | 0 | RKSAPATGGVKKPHRYRPG (R K S A P A T G G V Kme3 K P H R Y R P G)
0.00448 | 0 | ARTKQTA[Arg(Me2a)][Lys(Me2)][pS][pT]GGKAPRKQ
0.00897 | 0.00915 | A[Arg(Me2a)]TK(Ac)QTARKSTGGKAPRKQ
